Measurements from patent publication US20230183329A1, “COMBINATION THERAPY FOR TTR AMYLOIDOSIS” (Neurimmune AG, priority 2020, published 2023).

What was measured:
[1] = cited from earlier work
[2] = molecular target: T1, mis.WT-TTR aggregates (Homo sapiens, UniProt P02766); test: Direct ELISA, NI-301.37F1 binding to amyloid wtTTR aggregates in presence of TTR tetramer stabilizers; settings: for EC50 value of antibody binding to TTR amyloid: versus vehicle
T1 construct: Plasma-purified wtTTR was provided as a solution at a concentration of 2 mg/mL in PBS buffer; from tissue; host or cells: human plasma
Method: 96 well microplates were coated for 1 hour at 37° C. with mis.WT-TTR aggregates diluted to a concentration of 10 μg/mL in PBS buffer pH7.4. Non-specific binding sites were blocked for 1 hour at room temperature (RT) with a blocking buffer containing 2% bovine serum albumin (BSA) and 0.1% tween-20 in PBS buffer. Human NI-301.37F1 antibody was diluted in duplicates to the indicated concentrations in PBS supplemented with tafamidis or diflunisal at 10 μg/mL or corresponding concentration of vehicle buffer, and incubated overnight at 4° C. Binding was determined using an anti-human IgG antibody conjugated with horseradish peroxidase (HRP), followed by measurement of HRP activity in a standard colorimetric assay.
Data were analyzed with the Prism software from GraphPad. EC50 values were estimated using non-linear regression of individual data points using log(agonist) versus response model with variable slope. Data fitting was performed with the least square regression method.
For the assessment of the binding affinity of anti-TTR antibody in the presence of TTR tetramer stabilizer direct ELISA and EC50 determination has been substantially performed in Example 3 of WO 2015/092077 A1. ELISA plates were coated for 1 h at 37° C. with amyloid wtTTR aggregates and blocked for 1 h at room temperature with blocking buffer (PBS pH 7.4, 1% BSA and 0.1% polysorbate 20).
Tafamidis and diflunisal were dissolved in vehicle (80% PBS pH 7.4, 10% ethanol, 10% polysorbate 80) and antibody NI-301.37F1 dilution series were prepared with tafamidis or diflunisal at a final concentration of 10 μg/mL or a corresponding volume of the vehicle. The concentration of 10 μg/mL is […] the maximal peak concentration in patients treated with tafamidis at 80 mg per day (˜6 μg/mL). NI-301.37F1 dilution series were incubated in the ELISA plates overnight at 4° C., and, after washes, NI-301.37F1 was detected using an horseradish peroxidase (HRP)-coupled anti-human IgG antibody and standard detection methods. Data were analyzed with the Prism software from GraphPad. […]

[3] = molecular target: T2, soluble ATTR oligomers (mis.WT-TTR) (Homo sapiens, UniProt P02766); test: BLI binding kinetic assay, soluble ATTR oligomers; settings: in presence or absence of AG10 or diflunisal at 5 μg/mL
T2 construct: Plasma-purified wtTTR was provided as a solution at a concentration of 2 mg/mL in PBS buffer; from tissue; host or cells: human plasma
Method: (§1) The antibody NI-301.37F1 was loaded on anti-human capture sensors at 5 μg/mL in PBS for 5 min at 25° C. The binding assay was performed with soluble WT-TTR amyloid aggregates and tetrameric WT-TTR. A baseline was performed in 1× kinetic buffer for 3 min, the association was measured for 10 min and the dissociation for another 10 min in 1× kinetic buffer, all steps performed at 25° C. with shaking at 1000 rpm. A reference sample was also included consisting in 1× kinetic buffer.
(§2) Data were analyzed in ForteBio Data Analysis 8.2 software, using reference subtraction and interstep correction between association and dissociation.
NI-301.37F1 absent binding to TTR tetramers was investigated in presence and absence of TTR stabilizers using BLI. Soluble ATTR oligomers were included in this experiment to serve as positive controls.
NI-301.37F1 binding to ATTR oligomers and TTR tetramers was evaluated in presence of the TTR stabilizers AG10 and diflunisal at 5 μg/mL, or in presence of corresponding vehicle buffer using BLI.

[4] = molecular target: T3, TTR tetramers (tetr.WT-TTR) (Homo sapiens, UniProt P02766); test: BLI binding kinetic assay, TTR tetramers
T3 construct: Plasma-purified wtTTR was provided as a solution at a concentration of 2 mg/mL in PBS buffer; from tissue; host or cells: human plasma
Method: as §1, §2
NI-301.37F1 absent binding to TTR tetramers was investigated in presence and absence of TTR stabilizers using BLI. Soluble ATTR oligomers were included in this experiment to serve as positive controls. […]

[5] = molecular target: misfolded TTR (Homo sapiens, UniProt P02766); settings: cited from earlier work

Row | Molecule | mean half-life ([1]; human) | maximal peak concentration ([1]; patients treated with tafamidis at 80 mg per day) | binding to amyloidogenic TTR ([2]; in the presence of TTR stabilizers tafamidis and diflunisal, 10 μg/mL) | EC50 value of antibody binding to TTR amyloid ([2]; in the presence of diflunisal at 10 μg/mL) | EC50 value of antibody binding to TTR amyloid ([2]; in the presence of tafamidis at 10 μg/mL) | binding to ATTR oligomers in solution [3] | binding to TTR-diflunisal complexes ([4]; TTR tetramers in presence of diflunisal) | binding to TTR-tafamidis complexes ([4]; TTR tetramers in presence of tafamidis) | binding selectivity (absent binding to TTR tetramers) ([4]; in presence of TTR stabilizers (conclusion)) | binding to TTR tetramers in solution ([4]; no stabilizer) | binding affinity to misfolded TTR [5]
1 | O=C(O)c1ccc2nc(-c3cc(Cl)cc(Cl)c3)oc2c1 [tafamidis] | approximately 49 hours | ~6 µg/mL |  |  |  |  |  |  |  |  | 
2 | NI-301.37F1: human-derived monoclonal anti-TTR antibody binding epitope TTR41-45, selective for misfolded TTR, disclosed in WO 2015/092077 A1 (antibody, V domains shown) VH: QVQLQESGPGLVKPSETLSLTCSVSGGSIISRSSYWGWIRQPPGKGLEWIGGIYHSGNTYDNPSLKSRLTMSVDTSKNQFSLNLRSVTAADTAVYYCARIVPGGDAFDIWGQGTMVTVSS VL: DIQMTQSPSSLSASVGDRVTIACRASQSVGTYLNWYQQKRGKAPKLLIFAASSLQSGVPSRFSGSGSGTDFTLTISSLQPEDFATYYCQQSYSSPPTFGQGTKVEIK |  |  | maintained | increased | remained substantially unaffected | virtually identical | did not bind | did not bind | maintained | did not bind | sub-nanomolar range
